# Experimental data: patent US20220119513A1 (ZOETIS SERVICES, published 2022)
# Like-named read-outs stand apart in the source and are kept apart here.
# T1: TGFβ3 (R&D Systems) (Homo sapiens (Human), UniProt P10600 301-412, Active TGFβ3 is a disulfide-linked homodimer of this chain; one copy is given.)
# T1 construct: also called TGFB3
# T1 sequence: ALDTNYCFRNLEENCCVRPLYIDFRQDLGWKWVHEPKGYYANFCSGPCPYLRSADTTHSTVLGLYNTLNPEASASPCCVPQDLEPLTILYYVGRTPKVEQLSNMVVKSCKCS
# T2: TGFβ2 (R&D Systems)
# T2 construct: also called TGFB2
# T2 sequence (P61812 303-414, species assumed, looked up): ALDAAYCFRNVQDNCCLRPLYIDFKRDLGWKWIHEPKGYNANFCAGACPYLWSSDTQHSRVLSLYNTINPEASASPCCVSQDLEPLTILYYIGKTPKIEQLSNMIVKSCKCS
# Assays:
# TGFβ3 (R&D Systems) [1] = biological target: T1, TGFβ3 (R&D Systems); experiment: SPR
# TGFβ1 (R&D Systems) [2] = experiment: cell-based or functional assay
# TGFβ1 (R&D Systems) [3] = biological target: T3, TGFβ1 (R&D Systems); experiment: SPR, TGFβ on chip
# T3 construct: also called TGFB1
# Description: (§1) To avoid affinity differences associated with differential surface preparation that can occur when immobilizing antibodies to surfaces, TGFβ1, TGFβ2, and TGFβ3 (R&D Systems) were directly conjugated to the individual surface. Immobilization was obtained by amine coupling […] using N-hydroxysuccinimide (NHS)/1-Ethyl-3-(3-dimethylaminopropyl) carbodiimide (EDC) chemistry. Chips were quenched with ethanolamine and the affinity with which all candidate mAbs bound to the immobilized TGFβ was evaluated. All curves were fit to a 1:1 model. Affinities <10⁻¹¹ are below the lower limit of quantitation of detection for the instrument.
# TGFβ2 (R&D Systems) [4] = biological target: T2, TGFβ2 (R&D Systems); experiment: SPR, TGFβ on chip
# Description: as §1
# TGFβ3 (R&D Systems) [5] = biological target: T1, TGFβ3 (R&D Systems); experiment: SPR, TGFβ on chip
# Description: as §1
# TGFβ1 (R&D Systems) [6] = biological target: T3, TGFβ1 (R&D Systems); experiment: cell-based or functional assay; remark: listed apart in the source
# TGFβ3 (R&D Systems) [7] = biological target: T1, TGFβ3 (R&D Systems); experiment: cell-based or functional assay
# TGFβ1 (R&D Systems) [8] = biological target: T3, TGFβ1 (R&D Systems); experiment: SPR full titration
# TGFβ3 (R&D Systems) [9] = biological target: T1, TGFβ3 (R&D Systems); experiment: SPR full titration
# TGFβ1 (R&D Systems) [10] = biological target: T3, TGFβ1 (R&D Systems); experiment: cell-based or functional assay; remark: listed apart in the source
# TGFβ1 (R&D Systems) [11] = biological target: T3, TGFβ1 (R&D Systems); experiment: cell-based or functional assay; remark: listed apart in the source
# TGFβ2 (R&D Systems) [12] = biological target: T2, TGFβ2 (R&D Systems); experiment: cell-based or functional assay
# TGFβ3 (R&D Systems) [13] = biological target: T1, TGFβ3 (R&D Systems); experiment: cell-based or functional assay; remark: listed apart in the source
# T3 sequence (P01137 279-390): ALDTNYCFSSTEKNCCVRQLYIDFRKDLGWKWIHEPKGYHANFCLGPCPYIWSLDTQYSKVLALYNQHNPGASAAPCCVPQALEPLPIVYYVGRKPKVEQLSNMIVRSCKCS
binder,measurement,setting,value
fel-TGFβ1_hetero-chimera-1 (antibody) heavy: DVQLVESGGDLVKPGGSLRLTCVASGFTFSSYGMHWVRQAPGKELEWVAVISYDGSIKYYADAVKGRFTISRDNAKNTLYLQMNSLKTEDTATYYCARTGEYSGYDTDPQYSWGQGTTVTVSSASTTAPSVFPLAPSCGTTSGATVALACLVLGYFPEPVTVSWNSGALTSGVHTFPAVLQASGLYSLSSMVTVPSSRWLSDTFTCNVAHPPSNTKVDKTVRKTDHPPGPKPCDCPKCPPPEAAGAPSIFIFPPKPKDTLSISRTPEVTCLVVDLGPDDSDVQITWFVDNTQVYTAKTSPREEQFNSTYRVVSVLPILHQDWLKGKEFKCKVNSKSLPSPIERTISKAKGQPHEPQVYVLPPAQEELSRNKVSVTCLIKSFHPPDIAVEWEITGQPEPENNYRTTPPQLDSDGTYFVYSKLSVDRSHWQRGNTYTCSVSHEALHSHHTQKSLTQSPGK light: EIVLTQSPSSLSASVGDRVTITCRASQGIGDDLGWYQQKPGKAPILLIYGTSTLQSGVPSRFSGSGSGTDFTLTINSLQPEDFATYYCLQDSNYPLTFGGGTKRSDAQPSVFLFQPSLDELHTGSASIVCILNDFYPKEVNVKWKVDGVVQNKGIQESTTEQNSKDSTYSLSSTLTMSSTEYQSHEKFSCEVTHKSLASTLVKSFQRSECQRE,binding result,TGFβ3 (R&D Systems) [1],no binding
same,"CMVIC pSmad-3, IC50",TGFβ1 (R&D Systems) [2],30.1 nM
"chi04H09 (mouse-dog) (antibody, V domains shown, also called mouse:canine 04H09 chimera) VH: QVQLQQSGAELVKPGASVKISCKASGYAFSSSWMNWVKQRPGKGLEWIGQIYPGDGDTNYNGKFKGKATLTADKSSSTAYMQLSSLTSEDSAVYFCARHYDGSTDYWGQGTTLTVSS VL: DIQMTQSPASLSVSVGETVTITCRASENIYSNLAWYQQKQGKSPQLLVYAATNLADGVPSRFSGSGSGTQYSLKINSLQSEDFGSYYCQHFWGTPYTFGGGTKLEIKR",Kd,TGFβ1 (R&D Systems) [3],4.01 nM
same,Kd,TGFβ2 (R&D Systems) [4],27.7 nM
same,Kd,TGFβ3 (R&D Systems) [5],4.64 nM
same,"CMVIC pSmad-3, IC50",TGFβ1 (R&D Systems) [6],3.5 nM
same,"CMVIC pSmad-3, IC50",TGFβ3 (R&D Systems) [7],66.5 nM
"Can-SL501_VH3/Can-SL501-VL1 (antibody, V domains shown, caninized IgG; constant regions not restated; also called ZTS-501) VH: EVQLVESGGDLVKPGGSLRLSCVASGFTFSSYGMHWVRQAPGKGLQWVAVISYDGSIKYYADAVKGRFTISRDNAKNTLYLQMNSLRAEDTAVYYCARTGEYSGYDTDPQYSWGQGTTVTVSS VL: EIVMTQSPASLSLSQEEKVTITCRASQGIGDDLGWYQQKPGQAPKLLIYGTSTLQSGVPSRFSGSGSGTDFSFTISSLEPEDVAVYYCLQDSNYPLTFGAGTK",Kd,TGFβ1 (R&D Systems) [8],0.0218 nM
same,binding result,TGFβ3 (R&D Systems) [9],no binding
same,"CMVIC pSmad-3, IC50",TGFβ1 (R&D Systems) [10],4.91 nM
"felHclb 1-1WMN (antibody, V domains shown) VH: QVLLVQSGAEVRTPGASVKIFCKASGYIFITYWMNWVRQSPAQGLEWMGSIFPASGSTSYAQKFQGRLTLTADTSTNTAYMELSSLRSADTAMYYCARGDGNYALDAMDYWGQGTSVTVSS VL: EIQMTQSPSSLSASPGDRVTITCRASESVDSYGNSFMHWYQQKPGKVPKLLIYLASNLESGVPSRFSGSGSGTDFTLTISSLEPEDAATYYCQQNNEDPLTFGAGT","CMVIC pSmad-3, IC50",TGFβ1 (R&D Systems) [11],69.7 nM
same,"CMVIC pSmad-3, IC50",TGFβ2 (R&D Systems) [12],121 nM
same,"CMVIC pSmad-3, IC50",TGFβ3 (R&D Systems) [13],10.1 nM
"felHclb 1-1xWMN (antibody, V domains shown) VH: QVLLVQSGAEVRTPGASVKIFCKASGYIFITYWMNWVRQSPAQGLEWMGQIFPASGSTNYNEMFEGRLTLTADTSTNTAYMELSSLRSADTAMYYCARGDGNYALDAMDYWGQGTSVTVSS VL: EIQMTQSPSSLSASPGDRVTITCRASESVDSYGNSFMHWYQQKPGKVPKLLIYLASNLESGVPSRFSGSGSGTDFTLTISSLEPEDAATYYCQQNNEDPLTFGAGT","CMVIC pSmad-3, IC50",TGFβ1 (R&D Systems) [11],0.35 nM
same,"CMVIC pSmad-3, IC50",TGFβ2 (R&D Systems) [12],1.99 nM
same,"CMVIC pSmad-3, IC50",TGFβ3 (R&D Systems) [13],0.53 nM
